This note sets out measurements from paper PMC11077437.

As usually defined, the Kd is the constant that tells how readily two partners part at equilibrium. One may read the koff as a measure of how fast the partners let go of each other. By kon is commonly meant the rate constant with which the complex forms.

The target in experiment [1] is T1, recombinant human CS1 protein (CS1-(his)C) (human) (UniProt Q9NQ25).
T1 sequence: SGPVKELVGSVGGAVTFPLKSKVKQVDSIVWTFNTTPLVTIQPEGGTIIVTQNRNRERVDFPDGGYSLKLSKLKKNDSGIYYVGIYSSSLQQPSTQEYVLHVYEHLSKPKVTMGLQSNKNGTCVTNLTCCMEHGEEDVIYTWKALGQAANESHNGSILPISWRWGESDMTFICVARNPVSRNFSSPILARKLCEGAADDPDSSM
As to the kind of experiment: SPR; Biacore T200; recombinant CS1 amine-coupled on a CM5 chip; VHH 100 nM to 3.125 nM in HBS pH 7.4, 25°C; association 180 s, dissociation 300 s; fit '1:1 binding with drift and RI2'; n=1. In general terms: Surface plasmon resonance follows binding to a sensor surface in real time, without labels.

Experiment [2] has as its target T2, human CS1 on CS1pos OPM2 multiple myeloma cells (human (endogenous in OPM2)) (UniProt Q9NQ25).
T2 sequence: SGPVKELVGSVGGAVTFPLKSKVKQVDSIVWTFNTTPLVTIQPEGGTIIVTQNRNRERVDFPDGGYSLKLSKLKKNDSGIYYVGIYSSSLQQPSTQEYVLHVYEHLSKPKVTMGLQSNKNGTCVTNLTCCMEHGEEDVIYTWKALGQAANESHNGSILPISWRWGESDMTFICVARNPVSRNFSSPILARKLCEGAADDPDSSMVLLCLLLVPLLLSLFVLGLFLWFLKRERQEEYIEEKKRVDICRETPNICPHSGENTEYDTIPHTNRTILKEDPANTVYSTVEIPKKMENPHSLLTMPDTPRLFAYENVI

For experiment [3], the target named is T2, human CS1 on CS1pos OPM2 multiple myeloma cells (human (endogenous in OPM2)). As to the kind of experiment: flow cytometry on cells; purified VHH at 200 nM, 1 h at 4°C, on CS1pos OPM2 cells; detected by mouse anti-His IgG1 mAb and APC anti-mouse IgG1 mAb; ΔMFI against the non-targeting control VHH R3B23 at 200 nM; n=1. (In general: Flow cytometry measures light scatter and fluorescence of single cells or particles in a stream.)

B1: VHH-2 (VHH)
VHH: DVQLVESGGGLVQPGDSLRLSCTASGRTFENNFMGWFRQPPGKEREFVAAVGWNTGRGYYTDSVKGRFTISRDSAKNTVYLQMNSLKPEDTAVYSCNAPLQSLDRRLPGPYWGQGTQVTVSS
With B1, in experiment [1], the Kd was 49.7 nM, the koff was determined as 0.0318 s⁻¹ and the kon was found to be 641000 M⁻¹ s⁻¹. The molecule further yielded a tumor uptake of the 99mTc-labelled VHH in subcutaneous CS1pos OPM2 tumors in mice, ex vivo at 90 min p.i. (n=3) in experiment [2] of 0.48 % IA/g. The same molecule returned a ΔMFI [VHH] = 200 nM in experiment [3] of 6.09.
